This note sets out measurements from publication PMC3627575.

The labels stand for the following.
B1: N25 (dsDNA)
DNA 1: TATACAAACCCCTTACCAATATCATA
DNA 2: ATATGATATTGGTAAGGGGTTTGTAT
B2: S0_x2 (dsDNA)
DNA 1: AGCGTCGAGACGCGCGTCGAGACGC
DNA 2: TGCGTCTCGACGCGCGTCTCGACGC
B3: v2 (dsDNA)
DNA 1: ATAACTGGGAGGCGACGCTGGCG
DNA 2: TCGCCAGCGTCGCCTCCCAGTTA
B4: v1 (dsDNA)
DNA 1: AGGCACGCGTCCAGGCAACCGGG
DNA 2: TCCCGGTTGCCTGGACGCGTGCC
B5: PRDIII-I (dsDNA)
DNA 1: GAGGAAAACTGAAAGGGAACTGAAA
DNA 2: TTTCAGTTCCCTTTCAGTTTTCCTC
B6: dsS0mm (dsDNA)
DNA 1: GCGTCGAGACGC
DNA 2: GCGTCGAGACGC

One data set deals with T1, vIRF-1 DBD (vIRF-1 88-196) (Kaposi's sarcoma-associated herpesvirus …, UniProt F5HF68 88-196). Briefly: thermal stability shift assay.
T1 sequence (F5HF68 88-196): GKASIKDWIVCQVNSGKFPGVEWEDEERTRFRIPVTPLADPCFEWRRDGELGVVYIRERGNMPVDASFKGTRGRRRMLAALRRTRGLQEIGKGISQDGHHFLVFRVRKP
For B1, the binding result is “binds”.

On to B2, for which the binding result is reported as “binds”.

Take B3: the binding result is listed as “binds”.

In the case of B4, the binding result is “binds”.

Regarding B5, the binding result is recorded as “binds”.

A further data set has as its target T1, vIRF-1 DBD (vIRF-1 88-196). Briefly: X-ray crystallography.
In the case of B6, the binding result is on record as “binds”.
